Experimental data reported in patent publication US10591471B2, “Suppression of SPLA2-integrin binding for treating an inflammatory condition or suppressing cell proliferation” (THE REGENTS OF THE UNIVERSITY OF CALIFORNIA, priority 2015, dated 2020).
Where no end group is shown, it is not given here.

Experiments:
[1] = system: other ligands (e.g., SDF-1, IGF-1); assay: Additional testing: binding of linear and cyclic site 2 peptides to other ligands
Excerpt: Data are shown in FIG. 12 comparing cyclic site 2 peptides (β1 and β3) binding to sPLA2-IIA or FKN.

sPLA2-IIA = biological target: T1, sPLA2-IIA (Homo sapiens, UniProt P14555); assay: ELISA-type binding of S2 peptides to immobilized sPLA2-IIA; conditions: GST-tagged peptides; sPLA2-IIA 20 μg/ml coating
T1 construct: made in house
T1 sequence (P14555 21-144): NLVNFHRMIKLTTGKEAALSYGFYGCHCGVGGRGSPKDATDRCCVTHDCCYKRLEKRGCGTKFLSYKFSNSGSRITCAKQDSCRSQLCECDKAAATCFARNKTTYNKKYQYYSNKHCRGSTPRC
Method: ELISA-type binding assays were performed as described previously (18). Briefly, wells of 96-well Immulon 2 microtiter plates (Dynatech Laboratories, Chantilly, Va.) were coated with 100 μl 0.1 M NaHCO3 containing sPLA2-IIA, γC399tr, FN-H120 for 2 h at 37° C. Remaining protein binding sites were blocked by incubating with PBS/0.1% BSA for 30 min at room temperature. After washing with PBS, S2 peptides were added to the wells and incubated in PBS for 2 h at room temperature. After unbound S2 peptides were removed by rinsing the wells with PBS, bound S2 peptides (GST-tagged) were measured using HRP-conjugated anti-GST antibody and peroxidase substrates.

U937 cells = assay: sPLA2-IIA-induced chemotaxis in modified Boyden chambers; type: cell-based, human; conditions: 1 μg/ml sPLA2-IIA, 20 μg/ml peptide, 5 h
Method: FIG. 11. S2-β1 peptide suppresses sPLA2-IIA-induced chemotaxis. Chemotaxis was measured in modified Boyden chambers. 1 μg/ml sPLA2-IIA and 20 μg/ml S2-β1 peptide or control peptides in 600 μl RPMI 1640 medium were placed in lower chamber, and U937 cells (2×10^5 cells in 100 μl RPMI 1640 medium) were placed in the upper chamber. After 5 hours of incubation at 37° C., cells in the lower chamber was counted.
Chemotaxis was measured in modified Boyden Chambers (Transwell). One μg/ml sPLA2-IIA and 20 μg/ml S2-β1 peptide or control peptides in 600 μl RPMI 1640 medium were placed in the lower chamber, and U937 cells (2×10^5 cells in 100 μl RPMI1640 medium) were placed in the upper chamber. After 5 h incubation at 37° C., cells in the lower chamber were counted.

[2] = system: integrin activation by FKN-CD; conditions: cited from earlier work
[3] = biological target: T2, sPLA2-IIA catalytic activity (Homo sapiens, UniProt P14555); conditions: clinical trials; cited from earlier work
T2 sequence (P14555 21-144): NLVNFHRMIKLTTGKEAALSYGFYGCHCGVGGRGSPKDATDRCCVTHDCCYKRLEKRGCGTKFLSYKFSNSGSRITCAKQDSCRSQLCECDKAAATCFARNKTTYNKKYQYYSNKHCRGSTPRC

FKN-CD = biological target: T3, FKN-CD (Homo sapiens, UniProt P78423); conditions: cited from earlier work
T3 sequence (P78423 25-100 limits assumed): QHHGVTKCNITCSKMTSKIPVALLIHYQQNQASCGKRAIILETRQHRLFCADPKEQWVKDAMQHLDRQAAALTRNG

[4] = system: integrin α5β1 on U937, K562 and CHO cells; assay: Flow cytometry: binding of FITC-labeled FN8-11 to α5β1 on the cell surface; type: cell-based, human, Chinese hamster; conditions: sPLA2-IIA WT or mutants
Method: (§1) The cells were cultured to nearly confluent in RPMI 1640/10% FCS (K562 and U937) or DMEM/10% FCS (CHO cells). The cells were resuspended with RPMI 1640/0.02% BSA or DMEM/0.02% BSA and incubated for 30 min at room temperature to block remaining protein binding sites. The cells were then incubated with WT sPLA2-IIA or mutants for 5 min at room temperature and then incubated with FITC-labeled integrin ligands (γC399tr, FN-H120, FN8-11, and ADAM15) for 15 min at room temperature. For blocking experiments, sPLA-IIA was preincubated with S2-β1 peptide for 30 min at room temperature. The cells were washed with PBS/0.02% BSA and analyzed by FACSCalibur (Becton Dickinson, Mountain View, Calif.). For inhibition studies using Cmpd21, sPLA2-IIA was preincubated with Cmpd21 for 30 minutes at room temperature.

[5] = system: integrin ligands used in this study; assay: ELISA: binding of sPLA2-IIA to the integrin ligands used; conditions: ligands coated at 2 μM
Method: FIG. 10. Lack of binding of sPLA2-IIA to integrin ligands used in the present study. Wells of 96-well microtiter plates were coated with ligands (2 μM coating concentration) and the remaining protein-binding sites were blocked with BSA. The wells were then incubated with sPLA2-IIA ([…] in PBS) for 2 hours at room temperature, and bound sPLA2-IIA was determined using HRP-conjugated anti-6His antibody. sPLA2-IIA (20 ng/ml coating concentration, 1% of input sPLA2-IIA) was used as a positive control. Data are shown as means+/−SEM of triplicate experiments.

[6] = system: integrin αvβ3 on U937, αvβ3-K562 and β3-CHO cells; assay: Flow cytometry: binding of FITC-labeled γC399tr to αvβ3 on the cell surface; type: cell-based, human
Method: as §1

Listera = conditions: cited from earlier work
[7] = system: integrins αvβ3, α4β1, α5β1; assay: sPLA2-IIA-induced integrin activation (present study overall)
Method: ELISA-type binding assays were performed as described previously (18). Briefly, wells of 96-well Immulon 2 microtiter plates (Dynatech Laboratories, Chantilly, Va.) were coated with 100 μl 0.1 M NaHCO3 containing γC399tr or ADAM15 for 2 h at 37° C. Remaining protein binding sites were blocked by incubating with PBS/0.1% BSA for 30 min at room temperature. After washing with PBS, soluble recombinant αvβ3 (5 μg/ml) in the presence or absence of sPLA2-IIA (WT or mutants) was added to the wells and incubated in HEPES-Tyrodes buffer (10 mM HEPES, 150 mM NaCl, 12 mM NaHCO3, 0.4 mM NaH2PO4, 2.5 mM KCl, 0.1% glucose, 0.1% BSA) with 1 mM CaCl2 for 2 h at room temperature. After unbound αvβ3 was removed by rinsing the wells with binding buffer, bound αvβ3 was measured using anti-integrin β3 mAb (AV-10) followed by HRP-conjugated goat anti-mouse IgG and peroxidase substrates.
The cells were cultured to nearly confluent in RPMI 1640/10% FCS (K562 and U937) or DMEM/10% FCS (CHO cells). The cells were resuspended with RPMI 1640/0.02% BSA or DMEM/0.02% BSA and incubated for 30 min at room temperature to block remaining protein binding sites. […] The cells were washed with PBS/0.02% BSA and analyzed by FACSCalibur (Becton Dickinson, Mountain View, Calif.). […]

[8] = biological target: T4, β1 integrins on U937, K562 and α4-K562 cells (Homo sapiens, UniProt P05556); assay: Reactivity of β1 integrins to activation-dependent antibodies HUTS4 and HUTS21; type: cell-based; conditions: U937, K562, α4-K562 cells in RPMI1640; preliminary experiments
T4 construct: endogenous in cells; host or cells: U937, K562, α4-K562
Excerpt: It is unclear whether sPLA2-IIA-induced integrin activation requires global conformational changes in integrins. In current models of integrin activation, activation of β1 integrins induces a swing-out movement of the hybrid domain and exposes epitopes recognized by activation-dependent antibodies (anti-human β1 HUTS4 and HUTS21)(45). The HUTS4 and HUTS21 epitopes are located in the hybrid domain of […] (46,47). […] It is possible that the binding of sPLA2-IIA to site 2 induces only local conformational changes within the headpiece of integrins. […] It was shown that sPLA2-IIA (the current study) FKN-CD (19) actually bind to site 2 and the binding of sPLA2-IIA and FKN to site 2 is required for integrin activation using the peptides from site 2. It is likely that integrins that are activated by sPLA2-IIA and FKN-CD through site 2 have conformations similar to the open-headpiece αvβ3 that has no global conformational changes compared to the closed-headpiece form. The open- and closed-headpiece conformations of αvβ3 may really reflect the fact that integrins can be activated without global conformational changes through allosteric mechanism.

[9] = system: integrin α4β1 on U937, α4-K562 and α4-CHO cells; assay: Flow cytometry: binding of FITC-labeled fibronectin H120 fragment to α4β1 on the cell surface; type: cell-based, human; conditions: for binding of H120 to α4β1 (α4β1 activation): U937, α4-K562, α4-CHO cells, sPLA2-IIA WT or mutants
Method: as §1

[10] = biological target: T5, integrin αvβ3 on U937, αvβ3-K562 and β3-CHO cells (Homo sapiens, UniProt P05106+P06756); assay: Flow cytometry: binding of FITC-labeled ADAM15 disintegrin domain to αvβ3; type: cell-based; conditions: sPLA2-IIA 20 μg/ml
T5 construct: expressed in transfected cells; host or cells: U937 (endogenous αvβ3); αvβ3-K562 (transfected human αvβ3); β3-CHO (human β3 with hamster αv)
Method: as §1

T4 sequence (P05556 21-798): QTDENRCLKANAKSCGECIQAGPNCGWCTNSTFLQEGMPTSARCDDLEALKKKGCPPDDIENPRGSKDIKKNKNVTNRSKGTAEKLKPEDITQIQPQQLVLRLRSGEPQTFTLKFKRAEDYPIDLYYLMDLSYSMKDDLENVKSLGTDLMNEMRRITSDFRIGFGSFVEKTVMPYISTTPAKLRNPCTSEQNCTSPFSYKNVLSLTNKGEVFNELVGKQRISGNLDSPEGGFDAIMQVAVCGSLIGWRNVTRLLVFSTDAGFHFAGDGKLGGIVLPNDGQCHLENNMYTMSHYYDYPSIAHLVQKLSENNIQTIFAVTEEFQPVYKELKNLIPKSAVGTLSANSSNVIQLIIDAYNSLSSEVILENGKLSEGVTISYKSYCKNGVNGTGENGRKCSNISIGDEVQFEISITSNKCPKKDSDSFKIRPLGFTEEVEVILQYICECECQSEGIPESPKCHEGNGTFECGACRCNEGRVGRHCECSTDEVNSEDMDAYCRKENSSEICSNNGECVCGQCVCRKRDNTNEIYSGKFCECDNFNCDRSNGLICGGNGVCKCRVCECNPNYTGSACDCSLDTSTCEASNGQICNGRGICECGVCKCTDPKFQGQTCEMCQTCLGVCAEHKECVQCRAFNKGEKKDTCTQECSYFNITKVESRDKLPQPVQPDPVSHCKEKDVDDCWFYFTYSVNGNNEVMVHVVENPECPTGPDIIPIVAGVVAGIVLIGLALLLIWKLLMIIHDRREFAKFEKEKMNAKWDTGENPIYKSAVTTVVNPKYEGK
T4 sequence (P08648 42-894 partner limits assumed): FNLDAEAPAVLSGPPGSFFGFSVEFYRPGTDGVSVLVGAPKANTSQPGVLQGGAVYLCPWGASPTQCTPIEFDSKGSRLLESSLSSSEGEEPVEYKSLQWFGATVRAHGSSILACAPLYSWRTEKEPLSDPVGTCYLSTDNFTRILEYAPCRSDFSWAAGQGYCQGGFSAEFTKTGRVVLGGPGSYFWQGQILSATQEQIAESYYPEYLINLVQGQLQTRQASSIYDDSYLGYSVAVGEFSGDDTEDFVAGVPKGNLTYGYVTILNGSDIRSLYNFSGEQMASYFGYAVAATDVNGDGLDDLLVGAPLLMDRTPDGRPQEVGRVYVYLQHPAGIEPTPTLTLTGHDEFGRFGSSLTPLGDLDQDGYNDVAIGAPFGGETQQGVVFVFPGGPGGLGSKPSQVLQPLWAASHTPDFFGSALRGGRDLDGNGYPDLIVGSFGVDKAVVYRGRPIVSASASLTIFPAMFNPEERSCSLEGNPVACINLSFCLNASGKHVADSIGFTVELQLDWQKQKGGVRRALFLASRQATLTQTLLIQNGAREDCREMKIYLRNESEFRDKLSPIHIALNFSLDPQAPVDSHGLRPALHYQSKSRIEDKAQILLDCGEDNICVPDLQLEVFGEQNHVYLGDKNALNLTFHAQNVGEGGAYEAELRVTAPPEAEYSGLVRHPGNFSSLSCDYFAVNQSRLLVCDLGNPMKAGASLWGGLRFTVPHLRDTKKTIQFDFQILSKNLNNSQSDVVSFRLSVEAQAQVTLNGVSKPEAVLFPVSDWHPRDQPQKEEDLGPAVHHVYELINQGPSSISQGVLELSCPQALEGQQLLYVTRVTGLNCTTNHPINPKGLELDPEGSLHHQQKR
T4 sequence (P08648 895-1049 partner limits assumed): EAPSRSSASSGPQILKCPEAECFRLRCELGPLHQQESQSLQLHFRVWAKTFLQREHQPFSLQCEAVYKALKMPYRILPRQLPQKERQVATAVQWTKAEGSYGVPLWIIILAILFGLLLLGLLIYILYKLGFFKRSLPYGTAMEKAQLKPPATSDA

## linear β1 peptide: linear peptide comprising SEQ ID NO:1, GST fusion (LPNDGQCHLENNMYTMSHYY; also: GST fusion)
[1]
  binding to other ligands (e.g., SDF-1, IGF-1): did not bind to other ligands

## S2-β1 peptide: site 2 peptide from integrin β1 (β1 275-294, SEQ ID NO:1), made as GST fusion protein (LPNDGQCHLENNMYTMSHYY; also: made as GST fusion protein)
sPLA2-IIA
  binding of site 2 peptide to immobilized sPLA2-IIA: bound better to sPLA2-IIA in a concentration-dependent manner than S2-β3 peptide
U937 cells
  chemotaxis induced by sPLA2-IIA: suppressed chemotaxis induced by sPLA2-IIA

## VHDSHYSGQGAMSDNTNSPQT [Compound S2-β3scr, scrambled site 2 peptide, GST fusion protein, control, reference compound]
[2]
  FKN-CD-induced integrin activation: does not
sPLA2-IIA
  binding of site 2 peptide to immobilized sPLA2-IIA: did not bind to sPLA2-IIA

## CCc1c(C(=O)C(N)=O)c2c(OCC(=O)OC)cccc2n1Cc1ccccc1 [S-3013/LY333013]
[3]
  therapeutic effect in rheumatoid arthritis and asthma: failed to demonstrate a significant therapeutic effect

## CCc1c(C(=O)C(N)=O)c2c(OCC(=O)[O-])cccc2n1Cc1ccccc1.[Na+] [S-5920/LY315920Na]
[3]
  therapeutic effect in rheumatoid arthritis and asthma: failed to demonstrate a significant therapeutic effect

## QPNDGQSHVGSDNHYSASTTM [S2-β3 peptide, site 2 peptide, residues 267-287 of β3, C273 changed to S, GST fusion protein]
[2]
  FKN-CD-induced integrin activation: suppresses FKN-CD-induced integrin activation
FKN-CD
  binding to FKN-CD: directly binds to FKN-CD

B1: WT sPLA2-IIA: recombinant human secreted phospholipase A2 type IIA, wild type (protein)
chain: NLVNFHRMIKLTTGKEAALSYGFYGCHCGVGGRGSPKDATDRCCVTHDCCYKRLEKRGCGTKFLSYKFSNSGSRITCAKQDSCRSQLCECDKAAATCFARNKTTYNKKYQYYSNKHCRGSTPRC
[4]
  binding of FITC-labeled FN8-11 to α5β1 (α5β1 activation): markedly increased the binding of FITC-labeled FN8-11
[5]
  direct interaction of sPLA2-IIA with integrin ligands: does not directly interact with the integrin ligands used in this study
[6]
  activation of αvβ3 on the cell surface (FITC-γC399tr binding): activated αvβ3
Listera
  concentration that kills Listera: < 0.1 nM
[7]
  sPLA2-IIA concentration required to detect integrin activation: > 5 µg/mL
[8]
  reactivity of β1 integrins to HUTS4 and HUTS21: did not change reactivity of β1 integrins to HUTS4 and HUTS21
[9]
  binding of H120 to α4β1 (α4β1 activation): markedly increased the binding of H120 to α4β1
[9]; α4-CHO cells, sPLA2-IIA up to 500 μg/ml, binding reduced at higher concentrations
  sPLA2-IIA concentration of maximum H120 binding: 20 µg/mL
[10]
  binding of FITC-labeled ADAM15 disintegrin domain to αvβ3: markedly enhanced

B2: R74E/R100E: integrin-binding defective mutant of sPLA2-IIA (protein)
chain: NLVNFHRMIKLTTGKEAALSYGFYGCHCGVGGRGSPKDATDRCCVTHDCCYKRLEKRGCGTKFLSYKFSNSGSEITCAKQDSCRSQLCECDKAAATCFAENKTTYNKKYQYYSNKHCRGSTPRC
modifications: left off: small tags and cut ends
[4]
  binding of FITC-labeled FN8-11 to α5β1 (α5β1 activation): did not

B3: G29S/D48K: M-type receptor-binding defective mutant of sPLA2-IIA (protein)
chain: NLVNFHRMIKLTTGKEAALSYGFYGCHCSVGGRGSPKDATDRCCVTHKCCYKRLEKRGCGTKFLSYKFSNSGSRITCAKQDSCRSQLCECDKAAATCFARNKTTYNKKYQYYSNKHCRGSTPRC
modifications: left off: small tags and cut ends
[4]
  binding of FITC-labeled FN8-11 to α5β1 (α5β1 activation): induced α5β1 activation
[9]
  binding of H120 to α4β1 (α4β1 activation): induced α4β1 activation
